{"source": "paper doi:10.1101/172809", "about": "(bioRxiv, 2017)", "binders": {"B1": {"name": "Dynamin-Related Protein 1 (DRP1), wild type, full length, isoform 2 (enzyme, human, UniProt O00429-3 1-710, looked up)", "chain": "MEALIPVINKLQDVFNTVGADIIQLPQIVVVGTQSSGKSSVLESLVGRDLLPRGTGIVTRRPLILQLVHVSQEDKRKTTGEENGVEAEEWGKFLHTKNKLYTDFDEIRQEIENETERISGNNKGVSPEPIHLKIFSPNVVNLTLVDLPGMTKVPVGDQPKDIELQIRELILRFISNPNSIILAVTAANTDMATSEALKISREVDPDGRRTLAVITKLDLMDAGTDAMDVLMGRVIPVKLGIIGVVNRSQLDINNKKSVTDSIRDEYAFLQKKYPSLANRNGTKYLARTLNRLLMHHIRDCLPELKTRINVLAAQYQSLLNSYGEPVDDKSATLLQLITKFATEYCNTIEGTAKYIETSELCGGARICYIFHETFGRTLESVDPLGGLNTIDILTAIRNATGPRPALFVPEVSFELLVKRQIKRLEEPSLRCVELVHEEMQRIIQHCSNYSTQELLRFPKLHDAIVEVVTCLLRKRLPVTNEMVHNLVAIELAYINTKHPDFADACGLMNNNIEEQRRNRLARELPSAVSRDKLIQDSRRETKNVASGGGGVGDGVQEPTTGNWRGMLKTSKAEELLAEEKSKPIPIMPASPQKGHAVNLLDVPVPVARKLSAREQRDCEVIERLIKSYFLIVRKNIQDSVPKAVMHFLVNHVKDTLQSELVGQLYKSSLLDDLLTESEDMAQRRKEAADMLKALQGASQIIAEIRETHLW"}}, "key": {"[1]": {"target": "B1", "experiment": "cryo-EM structure"}, "cryo-EM structure": {"target": "the molecule itself", "experiment": "cryo-EM structure"}, "SEC": {"target": "the molecule itself", "experiment": "SEC"}}}
{"binder": "Mitochondrial Dynamics 49, MID49_(126-454) (domain or fragment, human, UniProt Q96C03-1 126-454, looked up) TLQERLLAFERDRVTIPAAQVALAKQLAGDIALELQAYFRSKFPELPFGAFVPGGPLYDGLQAGAADHVRLLVPLVLEPGLWSLVPGVDTVARDPRCWAVRRTQLEFCPRGSSPWDRFLVGGYLSSRVLLELLRKALAASVNWPAIGSLLGCLIRPSMASEELLLEVQHERLELTVAVLVAVPGVDADDRLLLAWPLEGLAGNLWLQDLYPVEAARLRALDDHDAGTRRRLLLLLCAVCRGCSALGQLGRGHLTQVVLRLGEDNVDWTEEALGERFLQALELLIGSLEQASLPCHFNPSVNLFSSLREEEIDDIGYALYSGLQEPEGLL", "values": [{"measurement": "binding result", "setting": "[1]", "result": "binds"}]}
{"binder": "B1", "values": [{"measurement": "binding result", "setting": "cryo-EM structure", "result": "binds"}]}
{"binder": "DRP1_(G362D), full length, disease-associated mutant (enzyme, human, UniProt O00429-3 1-710, looked up) MEALIPVINKLQDVFNTVGADIIQLPQIVVVGTQSSGKSSVLESLVGRDLLPRGTGIVTRRPLILQLVHVSQEDKRKTTGEENGVEAEEWGKFLHTKNKLYTDFDEIRQEIENETERISGNNKGVSPEPIHLKIFSPNVVNLTLVDLPGMTKVPVGDQPKDIELQIRELILRFISNPNSIILAVTAANTDMATSEALKISREVDPDGRRTLAVITKLDLMDAGTDAMDVLMGRVIPVKLGIIGVVNRSQLDINNKKSVTDSIRDEYAFLQKKYPSLANRNGTKYLARTLNRLLMHHIRDCLPELKTRINVLAAQYQSLLNSYGEPVDDKSATLLQLITKFATEYCNTIEGTAKYIETSELCDGARICYIFHETFGRTLESVDPLGGLNTIDILTAIRNATGPRPALFVPEVSFELLVKRQIKRLEEPSLRCVELVHEEMQRIIQHCSNYSTQELLRFPKLHDAIVEVVTCLLRKRLPVTNEMVHNLVAIELAYINTKHPDFADACGLMNNNIEEQRRNRLARELPSAVSRDKLIQDSRRETKNVASGGGGVGDGVQEPTTGNWRGMLKTSKAEELLAEEKSKPIPIMPASPQKGHAVNLLDVPVPVARKLSAREQRDCEVIERLIKSYFLIVRKNIQDSVPKAVMHFLVNHVKDTLQSELVGQLYKSSLLDDLLTESEDMAQRRKEAADMLKALQGASQIIAEIRETHLW", "values": [{"measurement": "stoichiometry N", "setting": "SEC", "result": 2}]}
